Data as given in patent US20070087356A1.

Legend:
[1] = target: GFP-Tus-His6 fusion protein (green fluorescent protein fused to E. coli Tus E47Q with a C-terminal six-histidine tag) (E. coli) (UniProt P16525); assay: protein microarray, fluorescence scan; fusion protein expressed in situ and captured on the spotted plasmid with mutant Ter site (SEQ ID NO: 12)
[2] = target: GFP-Tus-His6 fusion protein (green fluorescent protein fused to E. coli Tus E47Q with a C-terminal six-histidine tag) (E. coli) (UniProt P16525); assay: protein microarray, fluorescence scan; fusion protein expressed in situ and captured on the spotted plasmid with wild-type Ter site

monoclonal antibody to the poly-his tag (Sigma-Aldrich), labeled with Cy3 or Cy5
Cy3 Signal Intensity (Background subtracted) (arbitrary units) [1]: 10900 | Cy5 Signal Intensity (Background subtracted) (arbitrary units) [1]: 4740 | Cy3 Signal Intensity (Background subtracted) (arbitrary units) [2]: 20600 | Cy5 Signal Intensity (Background subtracted) (arbitrary units) [2]: 14000
